From article PMC2817469

Legend:
[1] = biological target: T1, Dna2 E675A (nuclease-defective) (UniProt P38859 1-1522, E675A); assay: competition
[2] = biological target: T1, Dna2 E675A (nuclease-defective); assay: DNase I footprinting
[3] = biological target: T1, Dna2 E675A (nuclease-defective); assay: EMSA
[4] = biological target: T1, Dna2 E675A (nuclease-defective); assay: competition; remark: listed apart in the source

T1 sequence (P38859 whole entry E675A): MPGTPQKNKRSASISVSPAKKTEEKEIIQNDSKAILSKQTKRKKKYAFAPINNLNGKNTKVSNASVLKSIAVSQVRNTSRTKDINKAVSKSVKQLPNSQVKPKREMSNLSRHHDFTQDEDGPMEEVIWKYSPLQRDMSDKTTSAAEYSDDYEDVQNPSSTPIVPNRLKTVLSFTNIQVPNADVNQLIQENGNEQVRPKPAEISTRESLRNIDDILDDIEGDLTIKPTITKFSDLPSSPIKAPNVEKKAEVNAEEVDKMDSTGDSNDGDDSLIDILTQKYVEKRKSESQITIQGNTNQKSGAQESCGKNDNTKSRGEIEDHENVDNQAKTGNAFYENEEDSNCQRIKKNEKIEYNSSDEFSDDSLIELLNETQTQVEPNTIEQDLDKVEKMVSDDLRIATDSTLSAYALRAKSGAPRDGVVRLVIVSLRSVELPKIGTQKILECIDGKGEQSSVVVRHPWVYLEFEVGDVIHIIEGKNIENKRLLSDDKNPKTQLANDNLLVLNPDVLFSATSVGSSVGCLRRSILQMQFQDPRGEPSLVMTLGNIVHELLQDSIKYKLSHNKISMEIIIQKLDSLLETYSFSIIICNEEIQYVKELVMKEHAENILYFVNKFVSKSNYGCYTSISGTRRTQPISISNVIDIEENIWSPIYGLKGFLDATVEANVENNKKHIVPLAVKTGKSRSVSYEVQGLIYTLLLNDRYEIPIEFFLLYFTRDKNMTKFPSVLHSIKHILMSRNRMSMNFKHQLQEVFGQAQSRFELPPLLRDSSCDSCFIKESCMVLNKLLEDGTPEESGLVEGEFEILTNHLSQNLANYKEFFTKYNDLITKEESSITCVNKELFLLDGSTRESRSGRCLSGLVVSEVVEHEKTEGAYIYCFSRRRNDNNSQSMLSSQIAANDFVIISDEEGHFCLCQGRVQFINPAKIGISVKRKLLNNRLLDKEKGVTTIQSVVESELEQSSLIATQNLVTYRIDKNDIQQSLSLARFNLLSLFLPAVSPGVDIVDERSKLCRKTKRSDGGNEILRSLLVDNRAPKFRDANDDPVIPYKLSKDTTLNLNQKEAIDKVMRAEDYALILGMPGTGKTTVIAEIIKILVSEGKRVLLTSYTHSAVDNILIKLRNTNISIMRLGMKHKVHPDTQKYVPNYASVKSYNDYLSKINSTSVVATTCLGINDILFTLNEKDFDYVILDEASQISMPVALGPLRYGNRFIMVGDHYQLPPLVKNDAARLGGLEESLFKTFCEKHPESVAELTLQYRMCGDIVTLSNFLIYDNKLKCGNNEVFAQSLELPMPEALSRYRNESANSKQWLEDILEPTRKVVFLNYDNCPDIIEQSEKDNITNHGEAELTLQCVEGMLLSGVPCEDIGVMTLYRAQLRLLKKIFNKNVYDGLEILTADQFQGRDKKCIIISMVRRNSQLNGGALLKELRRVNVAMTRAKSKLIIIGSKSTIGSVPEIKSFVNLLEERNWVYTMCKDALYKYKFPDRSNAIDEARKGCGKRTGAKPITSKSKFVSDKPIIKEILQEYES

Binder: TTCACGAGATTTACTTATTTCACTGCGGCT (ssDNA) [ssDNA 30-nt]
- binding result [1]: binds

B1: Nick (structured_DNA)
DNA: ACATGATGCATCGTTAGGCGATTCCGCCTAACGATGCATCATGTCGCGAACCCTATTTAGGGTTCGCG
- binding result [2]: binds

B2: Double-Flap (structured_DNA)
DNA: TTCACGAGATTTACTTATTTCACTGCGGCTACATGATGCATCGTTAGGCGATTCCGCCTAACGATGCATCATGTCGCGAACCCTATTTAGGGTTCGCGT
- Kd [3]: 7 nM

B3: Fork (structured_DNA)
DNA: TTCACGAGATTTACTTATTTCACTGCGGCTACATGATGCATCGTTAGGCGATTCCGCCTAACGATGCATCATGTTGTTACCCTTTGA
- Kd [3]: 9.2 nM

B4: Gap (20-nt) (structured_DNA)
DNA: ACATGATGCATCGTTAGGCGATTCCGCCTAACGATGCATCATGTTTTTTTTTTTTTTTTTTTTTCGCGAACCCTATTTAGGGTTCGCG
- Kd [3]: 6.7 nM

B5: 5'-Tail (structured_DNA)
DNA: TTCACGAGATTTACTTATTTCACTGCGGCTACATGATGCATCGTTAGGCGATTCCGCCTAACGATGCATCATGT
- Kd [3]: 8.5 nM

B6: Flap (30-nt 5'-flap) (structured_DNA)
DNA: TTCACGAGATTTACTTATTTCACTGCGGCTACATGATGCATCGTTAGGCGATTCCGCCTAACGATGCATCATGTCGCGAACCCTATTTAGGGTTCGCG
- Kd [3]: 8.4 nM

B7: Biotin-Flap, streptavidin-blocked (structured_DNA)
DNA: TTCACGAGATTTACTTATTTCACTGCGGCTACATGATGCATCGTTAGGCGATTCCGCCTAACGATGCATCATGTCGCGAACCCTATTTAGGGTTCGCG
modifications: 5' biotin
- binding result [4]: binds
